The target of this test is T1, anthrax lethal factor (LF) (Bacillus anthracis, strain , UniProt P15917).
T1 construct: source: purified; produced in Dr. Nick Duesbery's lab at Van Andel Research Institute
As to the kind of experiment: ELISA. The note with it: both partners purified. On the technique in general: In an ELISA, binding on a coated surface is turned into a signal by an enzyme label.

T1 sequence (P15917 34-809): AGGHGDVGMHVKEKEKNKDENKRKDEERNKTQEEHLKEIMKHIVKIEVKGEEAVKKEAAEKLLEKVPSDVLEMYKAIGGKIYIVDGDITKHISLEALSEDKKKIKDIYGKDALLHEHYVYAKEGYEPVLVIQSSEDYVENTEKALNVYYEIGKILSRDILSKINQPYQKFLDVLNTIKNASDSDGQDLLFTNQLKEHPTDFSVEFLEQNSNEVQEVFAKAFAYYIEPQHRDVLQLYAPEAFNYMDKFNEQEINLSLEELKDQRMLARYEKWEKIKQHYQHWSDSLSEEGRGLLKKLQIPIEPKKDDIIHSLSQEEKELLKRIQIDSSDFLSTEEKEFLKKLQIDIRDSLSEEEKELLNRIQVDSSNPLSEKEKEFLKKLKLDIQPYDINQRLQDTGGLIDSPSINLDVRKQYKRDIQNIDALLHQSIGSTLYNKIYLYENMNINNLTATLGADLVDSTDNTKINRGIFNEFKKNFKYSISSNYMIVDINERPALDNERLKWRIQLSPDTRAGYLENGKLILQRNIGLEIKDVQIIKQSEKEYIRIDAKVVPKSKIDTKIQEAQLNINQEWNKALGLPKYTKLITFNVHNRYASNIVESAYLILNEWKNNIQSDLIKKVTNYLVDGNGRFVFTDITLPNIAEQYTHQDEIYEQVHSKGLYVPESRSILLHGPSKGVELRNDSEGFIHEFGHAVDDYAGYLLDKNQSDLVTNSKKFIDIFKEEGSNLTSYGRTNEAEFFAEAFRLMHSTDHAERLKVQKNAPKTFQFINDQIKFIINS

B1:  (Fab, V domains shown)
VH: EVQLQQSGAELVKPGASVKLSCTASGFNIKDSYMHWVKQRPEQGLEWIGRIDPANGNTKYDPKFQGKATITVDTSSNTAYLQLSSLTSEDTAVYYCTRLDYWGQGTTLTVS
VL: ENVLTQSPAIMSASLGEKVTMSCRASSSVNYMYWYQQKSDASPKLWIYSTSNLAPGVPARFSGSGSGNSYSLTISSMEGEDAATYYCQQFTSSPSALTFGAGTKLEIK
notes: also called LF8-Fab; chimeric anti-LF Fab
For B1, the Ka was determined as 3.46e+07 M⁻¹.

These data come from PMC3687597 (Clinical and Developmental Immunology, 2013).
